Assay results published in patent publication US20210238265A1 (Biogen, published 2021).

Molecular target: T1, His-tagged Tau domain IV (AA 355-441 of hTau40) (human, UniProt O02828 317-403 (Capra hircus entry))
T1 construct: Expressed in E. coli BL21 (DE3) and purified on Ni-NTA; not shown: N-terminal 6xHis tag from pRSET-A vector
Assay: Western blot of His-tagged tau domains and hTau40
Protocol: DNA fragments, synthesized using GeneArt® (Invitrogen), which encode each Tau domain with 6×His tagged at the N-terminus were cloned into the pRSET-A expression vector (Invitrogen), were transfected into E. coli BL21 (DE3) (New England Biolabs). The expressions of the His-tagged Tau domains were induced by 0.5 mM IPTG for six hours before bacteria were lysed with lysozyme with sonication. The lysate was boiled for five minutes before being further purified with Ni-NTA Superflow Columns (Qiagen). The eluted His-tagged Tau domains were coated on ELISA plates or loaded on polyacrylamide gel for Western Blot. These sequentially overlapping tau domain polypeptides cover the full length of hTau40 (FIG. 13A).

T1 sequence (O02828 317-403): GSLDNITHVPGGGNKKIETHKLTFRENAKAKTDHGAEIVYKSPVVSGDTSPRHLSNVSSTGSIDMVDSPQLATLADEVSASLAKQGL

B1: Recombinant human antibody NI-105.4A3 (antibody, V domains shown)
VH: QVQLVESGGGAVQPGGSLRLSCAASGFTFSDYAMHWVRQAPGKGLQWVAVISYEGTYKYYADSVKGRFTISRDNSKNTLNLQMSSLRVEDTAVYFCVKARAFASGQRSTSTVPDYWGQGTLVTVSS
VL: SYELTQPPSVSVSPGQTARITCSGDALPKKYAYWYQQKSGQAPVLVIYEDNKRPSGIPERFSGSSSGTVATLTISGAQVDDEADYYCYSTDISGDLRVFGGGTKLTVL
B1: no binding.
